Experimental data taken from the DeepSol protein solubility set.

Assay: soluble on expression in E. coli; label from the status in PepcDB or PDB records

Sequence	soluble on expression in E. coli
MGSDKIHHHHHHMNNIIVGMGEALWDVLPEGKKIGGAPANFAYHVSQFGFDSRVVSAVGNDELGDEIMEVFKEKQLKNQIERVDYPTGTVQVTLDDEGVPCYEIKEGVAWDNIPFTDELKRLALNTRAVCFGSLAQRNEVSRATINRFLDTMPDIDGQLKIFDINLRQDFYTKEVLRESFKRCNILKINDEELVTISRMFGYPGIDLQDKCWILLAKYNLKMLILTCGINGSYVFTPGVVSFQETPKVPVADTVGAGDSFTAAFCASILNGKSVPEAHKLAVEVSAYVCTQSGAMPELPVILKDRLL	not soluble
MGSDKIHHHHHHMNNQVKRRKTKAVNVGKVQVGGGAPVAVQSMTCTDTRNVRETIEQIEALEKAGCEIVRVAVPDAEAASVLGKIKKSISIPLIADIHFNHHYALMAIEQDVDGIRINPGNVGKKNIAEIVRAAKDHNTVIRIGVNAGSLEKELQEKHGGPTAHALTESALNNLAFVEDMGFDRIKLSLKSSHVPTMIDAYRLVADKTDYPLHLGVTEAGTLVTSAVKSSIGMGLLLHEGIGDTIRVSVTGSPVLEIGIAYDILRALDIRRVGPDIISCPTCGRCEIDLFGLVEQVEHSLSGMKDYMKIALMGCVVNGPGEAAEADVGIAGGRGMGLLFKKGQVIRKIREEEFVKALLQEIQEMTGE	not soluble
MGSDKIHHHHHHMNPFQNSFGGHIPQDVAGKQGENVIFIVYNLTDSPDTVDKVKDVCANFSAMIRSMRNRFPDMQFSCTMGFGADAWTRLFPDKGKPKELSTFSEIKGEKYTAVSTPGDLLFHIRAKQMGLCFEFASILDEKLKGAVVSVDETHGFRYMDGKAIIGFVDGTENPAVDENPYHFAVIGEEDADFAGGSYVFVQKYIHDMVAWNALPVEQQEKVIGRHKFNDVELSDEEKPGNAHNAVTNIGDDLKIVRANMPFANTSKGEYGTYFIGYASTFSTTRRMLENMFIGSPAGNTDRLLDFSTAITGTLFFVPSYDLLGELGE	not soluble
MGSDKIHHHHHHMNPINWLVLVATVAGRNGTLRVRLWRQMKAIGAAALRDGVYLLPARPELRQMLANWRDELLAADGMAHVLQVVEDDPATQAGWRALFDRSEAYQQWGEALAALLAQPPGAESDARRSLRQLRKELEAIAAIDFFAGESLKSARRQCNDAEKWLTRHYSPDEPLAVGGDIPRLELADYQQRLWATRARPWVDRVASAWLIRRFIDPAARFAWLTDVHACPAEALGFDFDGAAFTHIGERVTFEVLLASFGLEHDPALSRLGELVHALDVGGSVVPEGTGFEAVLGGSRSRIADDDLLLADISNVLDSLYAHFQEAARPQGSRAPTL	not soluble
MGSDKIHHHHHHMNQFKMSLFLPPISPVKDSATGRTVQPPTLTPYKEITLQEVYKLITSSERLKTLTETVRRAAENGDEKAYRMLKQQTLPYVTPCGVFSYRKSDSLTGPSGLIVVDIDHLDSRGEAEKLKRQLFDDRLLRPVLAFTSPGGRGVKAFIPYDLARIPDTRQNTSENIHWAMNYVQAIYDSHPDGEDKKTSRSGKGVDRSGKDLVRACFLSYDEEALIRREI	not soluble
MGSDKIHHHHHHMNQNLSSYWIFYTVANAGNISKAAKELYISQPAISKSIQKLEDGLECKLFSRSSRGVVLTDEGRLLYDHVSEAFEALNEGEEKLKRSIELGVGQLKIGVSSTLCKYMLLPYLKEFIHRNPHISISIECQSTNETLKLLDDDKIDIGLIGKPASLKTFNFYYLDNIEDIFVTTKDYLRNLSARGVKKSEILQNSTLMLLDKGNMTRKYIDDYLQENQIHVKDSIDISNMDLLIDFAKIGVGVACVIKSIVSKELADGTLIEIPLGIPIHKREVGFAYKESSKLSTSLQTFIKFYESYTPEDF	not soluble
MGSDKIHHHHHHMNQQTAAAQSTGVQAGTESSLLDEIVEKSKVAKSESEHARAKDLIGELVSQVLDGTVVVSDNLSATIDARVAELDRLISSQLSAVMHAAEFQRLESTWRGLDYLVKESNTGSTIKIKALHAPKRDLVRDFKNATEFDQSALFKKVYEEEFGTFGGSPFGVLVGDYEISRQPEDQYFIEQMSHVAAAAHAPFIASAAPELLGLESFADLGKPRDLGKVFDTVEYAKWKSFRDSEDSRYVGLTLPRFLGRLPFNPKDGAIAESFNFVEDVDGTDHDKYLWCNASWAFAARLTAAFDDFGWCAAIRGVEGGGLVEDLPTHTFKTDDGEIALKCPTEIAITDRREKELSDLGFIPLVHCKNSDYAAFFAAQSVQKPKKYSTDSANANAVLSAQLQYIFSVSRIAHYLKAMMRDKIGSFASAQNVETFLNRWISQYVLLDDDATQEQKAQFPLREASVQVSEIPGKPGAYRSVAFLRPHFQLDELSISLRLVADLPKPANS	not soluble
MGSDKIHHHHHHMNQSRLICFVALLFVLSGCQGKPVTIPEEDGPMVVVSHIKESTFSFISKNKMELLETEESPYPLTAMVDIEGGQIVVTSQTEDTLFLFDTVQGKILPFITLNKGLTVMEFDRAKRMLFVADTLNDEIIQIDVDKREVQTRIAIDCSPTDLQVIDDLLFILSSETSTVFIYDMRSETMIQSFSVTERPAGMFYDGSHLWIGGHGPYGDLNKRIFAYNIKTGVIDQEVEVGLMPITIYQDQHDTYVYVLCHGDDALYKVDLDAKRVEASLSVGHNPYYLKGDGDHLYVSNLDDDTFSIIERTTFQVVNEINVPAGPYAIVLEEEE	not soluble
MGSDKIHHHHHHMNRAATLAAYLTEKNWMSQPVSAGQVSFLAAGEYNENWLVQCGGRAAVLRINHGSQLGLRNQSEYEFSVLRHVASSGLTPQPYALDPLPWKHGPGKGAMLMEYIPGTPPDYRLHAADAARLFARVHGCPLPPRGDMIVQPDPVRDIARESTGLLHRQPDHPRSDIRTRLLNYRDTVLRLADDTAQLFAGEPQVITNTEVNSGNFIVLPPQHPRRGNEQAGVALCLVDWEKAVISCCHQDLGHFLVPTTTRWKTDFTFDAQSRTDFLRAYLQARHGSVDADALEALHLRTRVLERTILLRALSWCFMAWYEYSRGDRTLRNEFTYGRITSYLENIECILKYGE	not soluble
MGSDKIHHHHHHMNRSGTISGNNFQSTAAQTTAGPRESRLAASVCRIAPFYDFILRRKIMRQKIPLLASFKLTFRCNLSCLACPFHQRAGEEKANMSWSLARASLDALKHQGTLIVVFEGGEPFLWRDGRHDLHDLVNYAGRLFPRVAVTTNGTFPLDVPADILWVSLDGLKETHDRLRSGSFDRVWENLEQCSHGRLFVHFTINRENRHDIRPLLEKLKGIPAFRGMTVQLFYPYGQGEASLALSDLERKTVLEEVVAMKKQGFPILNSAGRLTAMINNDWRCHDDILINVDPDGAITPGCYVKSRGRINCRNCGFSPVSEASGALDLFPGSLKAGWSIFLK	not soluble
MGSDKIHHHHHHMNSKIYYFSGTGNSLVVSNILKETLNGSKEVIPLAIHRKENNIDINEDILVIVFPVYFADVPDIVKSFVEKLNFNINTHIYAIATCNGVAGHSLFTIDKLLKKRGKKLSAGFLINMPGNALITPPDVEEERLKNQTNRVAEIAKCINNLEIGNIEGKNNLKSHIDSVVLRLVGKNMQIATTKFFAENKCNGCGTCKRVCPVENISIVDKKPKWGNECERCLACFHWCPKEAINVKKSFLTNRKKYHHPDITVKDIFLDK	not soluble
MGSDKIHHHHHHMNTDARMGAGVSLKAEHYDQALACNLEGLWFEVHPENYMVGGPRLAWLNRIAERHPVSLHGVALSLAADAAPDQDHLQRLRALCDQIEPVLVYYHLAWSTWQGHYHPDLLPFPRSNEALQRIAENIQRCQEVLGRRISIENPSHYLQLQGHEWDEIDFLGELTRRTGCGLLLDINNVYVSAHNLGFSATAYLDRFPAQAITEVHLAGHSDDDQGSLLIDSHDAQVAEPVWALYRKLVSRVGPRPTLIERDDKLPPFTELLAERSIAQSIMTCPGVLP	not soluble
MGSDKIHHHHHHMNTITPISTRRVTLALQGGGSHGAFTWGVLDRLLEEPRLRIEAVSGTSAGAMNAACLAHGLADSGRQGARDTLERFWTAISNAAAFSPIRRSPLAIWLGNWSVADSMGYLMSTAFGRALSPYQSNPLNINPLRETVERIIDFDAVRACRDLSLFVTATNVHTGRPRIFTREDLSVDAVLASACLPHLFQAVEIDGVPYWDGGYVGNPALWPLIYETDVRDLLLVRINPLIREQTPMTGLEIADRLNEITFNASMFREMRAIAFVGRMLDEGSLDPERYKRMLIHAIEAEDDLKSLGASSKLNAELPFLFHLRDIGRRAADDWLTKNLEKIGYESTVDVASAYL	not soluble
MGSDKIHHHHHHMNTKVMTAIPFTIDRDWLFTHLHIKPGKPYVEDVENMIEQALTIGKPKAAYRLAYIESKGEDFVVVDGFKFTSRVLRVNLAETFKVVPYVITCGEELERWAKTFHHMFESYCADGIMEAVMHSARVAFFSQIAEEYNLGHAVNMNPGSLEDWPLKEQAPLFQLLGDVKSLIGVELKESFLMSPIKTVSGFRFSKEGSYENCQLCPREKCPGRRAPYEQNLYAEKYQLK	not soluble
MGSDKIHHHHHHMNVPKAGKVICAGLGPGDPELMSVKSWRALQGATHVAYFRKAGRAGQARAIVEGLLPAGVTEYPMEYPVTTEIHFSDPEYNRQLAAFYDQWADTLAEIAATQTVVVLCEGDPFLYGSFMHLHTRLEGRAEVEIIPGITGMSGCWTATGQPITWGDDVLTVAMATLSEDELTQRIRQTDALVVMKIGRNLPKLRRALEAAGRLQDAWLVERGTMPAQTVQKLTDVDGEVPYFSIVILHGEGRRP	not soluble
MGSDKIHHHHHHMNYLRLNNITKRFGSFIANDNINLSVASGSIHAILGENGAGKSTLMNIISGLYQPDAGEIYLQEQPIKITSPNEAIKLGIGMIYQHFMLIPKLTVTENIILGIEKTWRLNLEDKQQKIAALSQAYGLEIDPTAKVENLSVGAQQRVEILKVLYRQAKLLILDEPTAVLTPPEVESLIAILRQLASAGNTIIFISHKLEEVMNLCDSVTVLRQGKVVATTSTEAATSQQLATLMVGREVALQLNKSPTLPGEIILSVQNLQVADERNILAVNNVSFELRAGEILGIAGVDGNGQRELADAIAFVRTIKQGKIEFTPKHSSVGYIPEDRQTMGLVLQFSIAQNLILKAFKYLPFCRRFLLQQEAIANRAQAAMQEFDIRASGKDILVSQLSGGNQQKVVLARELALTPALIIAMQPTRGLDVGATIAVQSRILTERDRGAAILYISTELEEVMAMSDRIAVIYRGEFVAILDAATAKVEEIGLLMAGGIN	not soluble
MGSDKIHHHHHHMNYTNEVAKMTCVAKGPNHGPAPIPEEGKWVSAKEIKDISGLTHGVGRCAPQQGACKLTLNVKEGIIQEALVETIGCSGMTHSAAMAAEILSGKTILEALNTDLVCDAINTAMRELFLQIVYGRTQTAFSEGGLPVGAGLEDLGKGHRSQVGTMYSSAAKGPRYLEMVEGYVTKTGLDENNEIIGYEFINFGKMMDMIKQGMDANEAMKKATGNYGRFADAVKVIDPREE	not soluble
MGSDKIHHHHHHMPENLIIPSVDLRIGALEEYNRRQKEKAHHRQKGPKPRPCITLSREFGCEGYPVAESLLKLMPEQTGDQWVLVDKDVLDEVARRHHVSREILEALGTKNRILSQVLATFSERWKTDHEYFELLCSHIVSLAEQGNVIIVGLGGAIITHHREHCYDFRIFGSREFKIGSICQRMNLPPDKAADLIEKQQAQIDNFTREFLFEDEANPAIYDLLFNNDRMCPETMARTIADYVAGRIAAGTADKRHV	not soluble
MGSDKIHHHHHHMPMNRIDRLLGMITLLQAKKFVSAEKIADKFKISKRTVFRDIKAICEQGIPVGSEPNKGYFIVDGYFLPPVLFNNDEANALLLTESLVKGFADKSISKHYSNALDKIKAGLKQVDKDKLEHMQDAIKFQLPERMNNDFEYLSILQVAVSDKKIIYIDYKNNKEEVSKREIEPIGLIFYAFSWHLIGWCHHRKAYRDFKVSRIIQMKNTGVPFKKNKHMPLSEYMKELPVNY	not soluble
